# Source: patent publication US10976317B2, “Systematic discovery, maturation and extension of peptide binders to proteins” (Roche Sequencing Solutions, Inc., priority 2013, dated 2021)
# Molecular target: T1, human prostate specific antigen (PSA) (Homo sapiens, UniProt P07288)
# T1 construct: biotin (chemical label, NHS-PEG4-biotin on amines)
# Assay: PSA binding assay on 5-mer peptide array (biotin-labelled PSA, Streptavidin Cy5 staining, fluorescence signal)
# Conditions: 5-mer Array; rank in the list of 405 sequences with the highest average signal intensity; PSA 100 ng/ml, 25° C., 12 hrs
# Excerpt: Array Design: 5-mer array was designed by using all combinations of 18 natural amino acids excluding cysteine and methionine, any dimer or a longer repeat of the same amino acid, as well as any peptide containing HR, RH, HK, KH, RK, KR, HP, and PQ sequences to create a library of 1,360,732 unique peptides. Extension Arrays were designed by extending sequences selected from 5-mer arrays experiments by two amino acids from both N- and C-terminus using all 20 natural amino acids. Double Substitution/Deletion Arrays were designed by extension of sequences identified in the extension array experiments with glycine (G) amino acid to make them 11-mer peptides and creating a library that includes all possible single- and double substitution/deletion variants of the original sequence.
# Array Synthesis: 5-mer Arrays were synthesized with 5 cycles of synthesis using a mixture of G and S amino acids in a 3:1 ratio, respectively at the N- and C-terminus of each of the 5-mer peptide. Extension and Double Substitution/Deletion Arrays were synthesized directly without using flanking wobble synthesis.
# Binding Assay: PSA labelled with biotin using EZ-Link NHS-PEG4-biotinylation kit (Thermo Fisher Sci., Inc. Rockford, Ill.) was incubated in SecureSeal hybridization chamber (Grace Bio-Labs, Bend, Ore.) at concentration 100 ng/ml in 1×TE binding buffer with 1% alkali soluble casein at 25° C. for 12 hrs. Array was washed 3× with 1×TE buffer and stained with Streptavidin Cy5 in 1× binding buffer with 1% alkali soluble casein at 25° C. for 1 hr, and washed 3× with 1×TE buffer and finally with 0.1×TE buffer and scanned using a 2 micrometer MS200 scanner (Roche/Nimblegen, Madison, Wis.).
# Data analysis: Image analysis and signal extraction performed using NimbleGen DEVA software, and peptides with fluorescent signal are identified. The 5-mer sequences for the binding peptides are identified and clustered based on distances using the standard BLOSUM 62 substitution matrix as implemented by an R package ‘PEPLIB’ (see, White et al., 2013, cited above). The distances of the 5-mer peptides are plotted on the first two components of a PCA plot. Consensus motifs for each cluster are reported in the graph.
# T1 sequence (P07288 25-261): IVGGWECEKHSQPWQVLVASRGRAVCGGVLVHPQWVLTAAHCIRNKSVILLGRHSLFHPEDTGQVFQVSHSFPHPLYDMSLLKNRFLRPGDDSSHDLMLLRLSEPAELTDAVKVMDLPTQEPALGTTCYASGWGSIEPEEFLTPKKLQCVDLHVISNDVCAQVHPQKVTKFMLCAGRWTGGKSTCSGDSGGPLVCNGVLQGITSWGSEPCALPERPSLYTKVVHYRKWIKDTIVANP
row,Substance,rank by binding signal to PSA
1,FEVYL,1
2,RSILY,307
3,WEVHL,28
4,WTVYA,3
